Substrate in this data set: CC(=O)SCCNC(=O)CCNC(=O)[C@H](O)C(C)(C)COP(=O)(O)OP(=O)(O)OC[C@H]1O[C@@H](n2cnc3c(N)ncnc32)[C@H](O)[C@@H]1OP(=O)(O)O
In words: DTNB colorimetric assay of CoA release. The conditions noted are these: 2000 μM GlcN6P fixed, 25 mM Tris-HCl, 150 mM NaCl, pH 7.2, room temperature. The class given is biochemical, Cryptosporidium parvum. An excerpt:
DTNB colorimetric assay of CoA release on CpGNA1

This note sets out measurements from article PMC7587441, “Plasmodium falciparum Apicomplexan-Specific Glucosamine-6-Phosphate N-Acetyltransferase Is Key for Amino Sugar Metabolism and Asexual Blood Stage Development” (mBio, 2020).

In general, Km refers to the concentration of substrate that gives half-maximal velocity.

B1: CpGNA1 (Cryptosporidium parvum Iowa II) (protein)
chain: MISSFEVRKATIDDYFELRNLICDVTRCTETLSREQAEERFRYNTYHPYCLVDTENGRIVGYAGFYIIPHLGRKNDSRIEHVIISKEYRNRGLGRLLCKQIIEDAKNKFNCGRIDLTVESHIAKKLYSSLEFEKVNTEVMRNSFLDLTPKSD
notes: N-terminal GST tag kept (not cleaved), pGEX-6P-1, codon-optimized
For B1, the Km stood at 531 ± 80.33 µM.
